Results reported in publication PMC4642984.

Tests used:
[1] = molecular target: ELucC-BMAL1 deletion mutant Bd4 (mouse) (UniProt Q9WTL8); assay: split reporter (BiFC, NanoBiT); Split Luc complementation in living Cos7 cells transfected with ELucN-CK2β and ELucC-BMAL1 (WT or mutant) together with pcDNA, Myc-HA-CRY1, Myc-CRY2 or FLAG-CRY1 (WT or Cd1-4); real-time bioluminescence, averaged peak values
[2] = molecular target: ELucC-BMAL1 deletion mutant Bd5 (mouse) (UniProt Q9WTL8); assay: as above
ELucC-BMAL1 deletion mutant Bd5 (mouse), sequence (Q9WTL8 other isoform, or with tags, fused parts or gaps, stated change not applied): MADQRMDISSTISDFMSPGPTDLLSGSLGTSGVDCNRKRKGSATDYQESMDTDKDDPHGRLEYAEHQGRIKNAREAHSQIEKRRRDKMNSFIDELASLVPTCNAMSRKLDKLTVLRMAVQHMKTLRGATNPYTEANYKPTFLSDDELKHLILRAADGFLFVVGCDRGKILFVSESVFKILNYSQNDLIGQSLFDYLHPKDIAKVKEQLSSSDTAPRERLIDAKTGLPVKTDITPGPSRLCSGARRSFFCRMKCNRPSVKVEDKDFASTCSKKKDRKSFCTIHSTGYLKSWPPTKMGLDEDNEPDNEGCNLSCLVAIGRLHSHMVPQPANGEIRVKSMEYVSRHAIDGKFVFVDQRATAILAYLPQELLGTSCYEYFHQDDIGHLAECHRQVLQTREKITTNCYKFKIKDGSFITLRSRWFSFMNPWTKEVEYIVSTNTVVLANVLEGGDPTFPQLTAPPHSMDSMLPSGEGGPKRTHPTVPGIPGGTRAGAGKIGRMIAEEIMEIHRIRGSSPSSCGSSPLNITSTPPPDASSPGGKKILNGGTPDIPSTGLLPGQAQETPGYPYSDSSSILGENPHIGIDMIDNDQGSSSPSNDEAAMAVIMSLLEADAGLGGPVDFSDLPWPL

ELucN-CK2β, sequence (P67870 whole entry): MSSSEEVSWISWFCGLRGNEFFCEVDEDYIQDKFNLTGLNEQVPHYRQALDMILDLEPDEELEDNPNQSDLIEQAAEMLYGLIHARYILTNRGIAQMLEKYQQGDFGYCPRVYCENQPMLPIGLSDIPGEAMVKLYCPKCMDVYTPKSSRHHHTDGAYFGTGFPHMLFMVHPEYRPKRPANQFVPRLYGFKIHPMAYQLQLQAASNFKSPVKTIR
ELucC-BMAL1 deletion mutant Bd4 (mouse), sequence (Q9WTL8 other isoform, or with tags, fused parts or gaps, stated change not applied): as the sequence (Q9WTL8 other isoform, or with tags, fused parts or gaps, stated change not applied) above

Split Luc bioluminescence, fold of BMAL1-WT [1]: 2 fold | Split Luc bioluminescence, percent of BMAL1-WT [2]: 30%
Substance: ELucN-CK2β (from UniProt P67870 1-215) (natural protein)
